Measured values reported in the supplement of paper PMC12042874.
± gives the uncertainty stated by the source.

Experiment: amyloid nucleation score (Sup35N fusion, yeast selection) (log enrichment); library NNK3; higher = more nucleation; inactive = no reads after selection
Procedure, shortened: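 Nucleation score is defined as the DiMSum log enrichment of output over input reads, with centring on the mode score of non-aggregating sequences. A minimum of 100 input reads was required for each sequence. Reads came from Illumina sequencing of plasmid inserts from psi-negative yeast expressing Sup35N fused to peptides of 20 random codons, induced with 100 μM copper sulfate for 24 hours and grown 7 days at 30°C on medium lacking adenine and uracil.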
For DNPTYRYTICGMTLEHPKEE, the amyloid nucleation score was “inactive”. With DPSPGYLLSY the amyloid nucleation score was “inactive”. With DPVEIRG the amyloid nucleation score was “inactive”. For DQGLLRLMDTWLCMGVRQPS, the amyloid nucleation score was “inactive”. For DRHLAINERARLVAWFYYDF, the amyloid nucleation score was “inactive”. With DRIGVQ the amyloid nucleation score was “inactive”. With DRISSNDMCGWESGVISIHD the amyloid nucleation score was “inactive”. In the case of DRNAEELWCTRLLCYESCRT, the amyloid nucleation score is reported as “inactive”. For DRRLPIKPHVFVYSCNSICM, the amyloid nucleation score was 0.921 ± 0.17. In the case of DRYMRLCVFGYKYVSYG, the amyloid nucleation score is reported as “inactive”. With DRYYDSLC the amyloid nucleation score was “inactive”. In the case of DSCQKVVWIGSGEVRKAWRY, the amyloid nucleation score is reported as “inactive”. In the case of DSDKNPHGVLSSIGCMYVRS, the amyloid nucleation score is reported as “inactive”. In the case of DSFLVYIKSCIIILTGLNLY, the amyloid nucleation score is reported as “inactive”. In the case of DSGKDKF, the amyloid nucleation score is reported as “inactive”. With DSSNGFICR the amyloid nucleation score was “inactive”. DSSSLRSNVLVTVCVLVSSI showed an amyloid nucleation score of 0.375 ± 0.22. For DSTVTSE, the amyloid nucleation score was “inactive”. For DSVFCVRLAKLVGLHSSF, the amyloid nucleation score was “inactive”. For DSYDLYIVD, the amyloid nucleation score was “inactive”. In the case of DTDNWVLTDKTTGCSAVNGG, the amyloid nucleation score is reported as “inactive”. With DTESWNCFFYRDYYSGQILK the amyloid nucleation score was “inactive”. In the case of DTEVHQNRFRMFGACDRERK, the amyloid nucleation score is reported as “inactive”. In the case of DTGDCVPGVLSRYLMIWDG, the amyloid nucleation score is reported as “inactive”. With DTQSKTRRV the amyloid nucleation score was “inactive”. With DTVKKVYSYYMTLNYVEPLP the amyloid nucleation score was “inactive”. In the case of DVFVHHDM, the amyloid nucleation score is reported as “inactive”. With DVITIEYVCF the amyloid nucleation score was “inactive”. For DVNHVMNMNIGSNRN, the amyloid nucleation score was “inactive”. With DVPSSSSMAFGIWLGLLCLD the amyloid nucleation score was “inactive”. With DVRMLRLMVRELYC the amyloid nucleation score was “inactive”. For DVYGDGCSCYSVKYTCDRCQ, the amyloid nucleation score was “inactive”. In the case of DWFSAVR, the amyloid nucleation score is reported as “inactive”. For DWRMLRGFYLHINCMLSFQG, the amyloid nucleation score was “inactive”. For DWVGRYSVSMWILIGRGSLW, the amyloid nucleation score was “inactive”. With DYCGKRYPSASVKWPECFRG the amyloid nucleation score was “inactive”. In the case of DYDRIR, the amyloid nucleation score is reported as “inactive”. With DYDYTRFPVITV the amyloid nucleation score was “inactive”. In the case of DYEHSGSCKIDFVTL, the amyloid nucleation score is reported as “inactive”. For DYESMTCNVSSDTVPFQQA, the amyloid nucleation score was “inactive”. DYFEYCRRSKRFPKKDQPVN showed an amyloid nucleation score of -0.638 ± 0.84. Work on DYMLLWNCVLVILFN yielded an amyloid nucleation score of 0.323 ± 0.45. For DYNSCCSEREVGKKEYTKNN, the amyloid nucleation score was “inactive”. With DYTCACLRVRI the amyloid nucleation score was -0.047 ± 0.98. In the case of DYVWADLFCWASGSYLDGEC, the amyloid nucleation score is reported as “inactive”. Work on EAFSSHKNFNVTCFPK yielded an amyloid nucleation score of 1.77 ± 0.11. With EALGKSFLVKFKTIKYLRLA the amyloid nucleation score was “inactive”. For EAPFDHPLYLRDLY, the amyloid nucleation score was “inactive”. In the case of ECGWNMFCDRAHMSLGFYSM, the amyloid nucleation score is reported as “inactive”. With ECRHSEWTEYFPSMRFMQAY the amyloid nucleation score was “inactive”. ECYLEIASDSYINLKFARIE showed an amyloid nucleation score of 0.019 ± 0.73. For ECYVR, the amyloid nucleation score was “inactive”. For EDGLGSYFNKKVNATCLNLA, the amyloid nucleation score was “inactive”. Work on EDKGYWNLQAIEIVIQYGGR yielded an amyloid nucleation score of 0.225 ± 0.43. For EDMVARGSLSKGHWKDLAT, the amyloid nucleation score was “inactive”. With EELLRGFGAVGSWLNLSLEV the amyloid nucleation score was “inactive”. In the case of EFCVYMSNGGKNLRTRTWAQ, the amyloid nucleation score is reported as 0.54 ± 0.31. With EFIGGRAMLYEEWYMGVSSM the amyloid nucleation score was “inactive”. With EFLPKWDMQARDVTTLFGCP the amyloid nucleation score was “inactive”. With EFLPSCICDGKFISSLVCEP the amyloid nucleation score was “inactive”. For EFSKHFPCWHRNSVAYYEIR, the amyloid nucleation score was “inactive”. With EFTFWWCCDRYSRAELTCRR the amyloid nucleation score was “inactive”. For EFYGVVSRVPYERTPGTKVE, the amyloid nucleation score was “inactive”. For EGGDHCMNGHCVCRVGWLWA, the amyloid nucleation score was “inactive”. EGGLDFVFLYYGIICWVVAA showed an amyloid nucleation score of 0.282 ± 0.74.
